# Test results reported in the supplement of paper PMC10126150.
# ± gives the standard deviation of the averaged measurements.
# Tested on: ATP
# Experiment: switch fluorescence ratio, 500 uM ATP over buffer (Cy3 cluster intensity, sum of 5 cycles each) (fold (ratio)); higher = stronger signal-on switching upon ATP binding; sequences stand for … in TCGTCGGCAGCGTCAGATGTGTATAAGAGACAGTTTTTTTTTTTTTTTTTTTTTTTTT…TC
# Settings: aptamer strand: ATP DNA aptamer (quencher-CACCTGGGGGAGTATTGCGGAGGAAGG + anchor), 100 nM annealed; ATP concentration: 500 uM
# How it was run: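 Switching-strand clusters labelled with Cy3 on a modified Illumina MiSeq flow-cell were annealed to 100 nM quencher-labelled ATP aptamer, imaged in selection buffer, and re-imaged after 15 min with 500 uM ATP at 22 °C. This was done over five cycles with NaOH stripping and re-annealing in between. The fluorescence ratio is summed target-cycle over summed buffer-cycle Cy3 intensity per cluster, averaged per switch-domain sequence, excluding clusters outside 100-1000 RFU.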
# 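Also: ATP exposure 15 min at 22 °C before imaging.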
row,Sequence,switch fluorescence ratio
1,GGCATCGTCG,0.97 ± 0.025
2,GTGTGACACG,1.04 ± 0.064
3,CGGTTAATTT,1.01 ± 0.027
4,AGGGCTTTCT,0.97 ± 0.023
5,TTTGCGATTT,1.15 ± 0.14
6,GACTGGGGTT,0.9891 ± 0.0059
7,CAAGACAGCT,1.02 ± 0.031
8,TGGTTTGGCT,1.03 ± 0.023
9,CGTGGTGGGA,0.9737 ± 0.0088
10,GGTTTCCTGT,1.01 ± 0.043
11,GGGGGCGTCA,1.02 ± 0.017
12,TATTATGATC,1.03 ± 0.02
13,GGCTGCATGC,1.08 ± 0.023
14,AGCCAGAAGT,0.991 ± 0.022
15,TGGTTGGCGG,1.03 ± 0.062
16,GCAGGCACGG,0.976 ± 0.028
17,GGATCGGGGG,1.03 ± 0.05
18,AAGGTTGGTC,1 ± 0.027
19,TTGAGTGTTG,1.01 ± 0.049
20,GCTTGGATCC,0.966 ± 0.022
21,ACGAACGTTG,1.26 ± 0.089
22,TCGCATAGGT,1.1 ± 0.12
23,GAGTCCGTAC,1.31 ± 0.017

row,Sequence,switch fluorescence ratio
1,CGGGAGGGGC,1.02 ± 0.058
2,TTGTATTTTT,0.98 ± 0.033
3,GTCTGAGGTT,0.963 ± 0.015
4,CGCATTTAAG,1.18 ± 0.046
5,GAGGTGTGAC,1.01 ± 0.039
6,ATTTTATTAG,1.01 ± 0.021
7,GATATGCCTG,1.01 ± 0.069
8,GGGGCCGAGG,0.9573 ± 0.0075
9,TGGGGTTGTA,1.01 ± 0.056
10,CCAGGGGGAT,1.97 ± 1.3
11,TTAGGCGGGA,0.995 ± 0.046
12,TTTAGGTTAA,0.9752 ± 0.0074
13,CGATCTTTAC,1.29 ± 0.017
14,AGTAAGGGCG,0.992 ± 0.039
15,AAATTTATTT,0.9932 ± 0.0038
16,TCAAAAAGGA,1.01 ± 0.031
17,GACATCGGCA,1.03 ± 0.016
18,ATCGTGGGAA,0.9793 ± 0.0059
19,AAGGGGGGGA,1.01 ± 0.046
20,CCATACGTAG,1.035 ± 0.0066
21,AAATGGGGGG,0.974 ± 0.017
22,GTTTTTGGAT,0.991 ± 0.0049
23,CTTGCCGCGC,1.13 ± 0.017

row,Sequence,switch fluorescence ratio
1,ATGGGACGGC,0.998 ± 0.032
2,AAGAGATTTG,0.981 ± 0.018
3,ATGAGTTGGT,0.982 ± 0.033
4,AGCAACCTTT,1.16 ± 0.039
5,ATCATATTAG,1.01 ± 0.019
6,CGTAGATTTT,1 ± 0.046
7,TTGGATCCGG,0.98 ± 0.039
8,GAGACATTAC,1.61 ± 0.04
9,GATACGATGG,0.983 ± 0.027
10,AATTTGTGGC,0.995 ± 0.034
11,TTGGTGCAGC,1.025 ± 0.0075
12,AGATACGAGG,1.03 ± 0.011
13,GGTGATGATC,1.038 ± 0.0044
14,ATTCCGTATT,1.44 ± 0.68
15,GACACGGCAT,1.13 ± 0.018
16,GGCGCCGGAA,0.98 ± 0.031
17,GAAATGTTAG,0.966 ± 0.025
18,AGCTTTTGGG,0.979 ± 0.071
19,CGTTTTTGGC,0.992 ± 0.074
20,TTCAAATTGG,1 ± 0.043
21,TTTTGAACCA,1.05 ± 0.057
22,GGGGGTCGGA,1.03 ± 0.043
23,GAGGGGCCTC,1.03 ± 0.037

row,Sequence,switch fluorescence ratio
1,GGGGGGACTG,1.06 ± 0.077
2,AAGAGCCGCG,1.03 ± 0.045
3,GGTTTAGCCT,1.04 ± 0.023
4,TACCGTATTT,1.04 ± 0.027
5,AGTGTGAGTT,1.025 ± 0.01
6,GTTTAATTGC,0.995 ± 0.049
7,CAGGGGTACG,0.991 ± 0.042
8,GGAAATCAGG,0.989 ± 0.012
9,ACTTGAAAAT,1.002 ± 0.0095
10,TGCGCGCTGG,1 ± 0.041
11,TGAGATGCGG,1.03 ± 0.038
12,GCTTCTGCGT,1.02 ± 0.033
13,AGGAGTACCA,1.04 ± 0.015
14,GTCCACTGTT,0.996 ± 0.024
15,GAGGAAAAGT,0.997 ± 0.051
16,ATTGGGGGGG,1.02 ± 0.044
17,AAGCCGTGTC,1.01 ± 0.031
18,TACTTGTTTT,1 ± 0.033
19,AAAAATGGGA,0.962 ± 0.044
20,TCGGGATCCT,1.35 ± 0.51
21,AAATTTGGGT,1.01 ± 0.013
22,TGCAATTCAG,1.14 ± 0.012
23,TTAGGAGAGC,0.979 ± 0.014

row,Sequence,switch fluorescence ratio
1,TTGCTCTCTG,1.03 ± 0.031
2,GGGGGATGCC,1.15 ± 0.22
3,ATGTGGAAGT,0.97 ± 0.043
4,GGGTATGTAA,1.01 ± 0.066
5,GGTACTATT,0.991 ± 0.04
6,CGATAGGCAA,1.66 ± 0.9
7,GCGATAATTT,0.9975 ± 0.0076
8,CATACAGATC,1.06 ± 0.031
9,GATGGAACGG,1.05 ± 0.039
10,TGCGTGTTGA,1.04 ± 0.0081
11,GAAGGATATT,1.018 ± 0.0039
12,GGTAATGCTT,1 ± 0.05
13,CCGATTGGTA,1.027 ± 0.0057
14,TGAGTTTCTG,0.968 ± 0.014
15,GAACTAGGTG,1.444 ± 0.0058
16,GGACTTATTT,0.986 ± 0.014
17,TAGGATTTTG,0.985 ± 0.033
18,ACATGTTGTT,0.993 ± 0.024
19,GCTTCAGTAG,1.11 ± 0.02
20,AGATGTCTAC,0.989 ± 0.018
21,ACGCGGGGAG,1.01 ± 0.034
22,GCAAATTCCG,1.026 ± 0.0095
23,TGGTGGCTTG,0.991 ± 0.022

row,Sequence,switch fluorescence ratio
1,AGGTAATAGC,1.05 ± 0.0078
2,AACTATAATG,0.997 ± 0.044
3,CGTGTTGTAC,1.13 ± 0.024
4,TGGACTAGGG,0.975 ± 0.049
5,CTTAGTCGGC,0.967 ± 0.015
6,AGGGGGACTG,0.9635 ± 0.0022
7,GGCATACCGT,0.997 ± 0.0052
8,GTTGCAGGGT,1.004 ± 0.0065
9,AGACTAAAAG,0.986 ± 0.015
10,CGGTTGGGTA,0.977 ± 0.014
11,TACGTGGTAG,1.06 ± 0.05
12,CGTACGGACG,0.984 ± 0.021
13,AACGGTTTAA,1.05 ± 0.014
14,ACATATGGTA,0.9801 ± 0.0085
15,CAGTGTGAAT,1 ± 0.021
16,AGTGAGTGCT,0.9751 ± 0.0059
17,TGGGATAGAA,0.996 ± 0.019
18,GAACTCGGTC,0.994 ± 0.01
19,GCGGTACGGT,1.03 ± 0.039
20,AAGGGCTTGC,1.01 ± 0.041
21,GTAGTATTAT,0.991 ± 0.035
22,AATTAACGCG,0.993 ± 0.023
23,TAGGATACGG,0.995 ± 0.012

row,Sequence,switch fluorescence ratio
1,TAGGGGAATG,1.02 ± 0.098
2,AAAGGGAGGT,1.03 ± 0.041
3,AATATGTCGG,1 ± 0.021
4,GGAAGTTTAA,1 ± 0.02
5,CGCCCAAAGG,1.13 ± 0.11
6,TTTGCGAGAG,1.01 ± 0.045
7,GGGAAAGATT,1.005 ± 0.01
8,CATGAATGGT,0.962 ± 0.022
9,CGTTTGGTGG,1.01 ± 0.032
10,GACGGGAGGG,1.02 ± 0.02
11,AAGCGGCTCG,0.996 ± 0.03
12,TGAAGGGGCA,0.951 ± 0.041
13,TGCAGGGCAA,1.02 ± 0.044
14,TGCTCTTTCA,1 ± 0.025
15,TTGGGCGGAA,1.03 ± 0.071
16,CAAATGGGCC,0.993 ± 0.019
17,CGGTTGGGTG,0.97348 ± 6.3e-05
18,TAGTTACGGT,1.05 ± 0.064
19,GGGGGGCGTG,0.993 ± 0.027
